In US20170081400A1 (CEPHALON, published 2017):

Columns and labels:
[1] = biological target: T1, single-site biotinylated human TL1A (human, UniProt O95150 72-251, single-site biotinylated (site not stated)); assay: competition ELISA: antibody dilutions pre-incubated with biotinylated human TL1A (1 µg/ml), added to plate-coated DcR3/Fc; bound TL1A detected with streptavidin-HRP; blocked partner DcR3/Fc [bottom panel]
T1 construct: construct used for biotinylation not described
T1 sequence: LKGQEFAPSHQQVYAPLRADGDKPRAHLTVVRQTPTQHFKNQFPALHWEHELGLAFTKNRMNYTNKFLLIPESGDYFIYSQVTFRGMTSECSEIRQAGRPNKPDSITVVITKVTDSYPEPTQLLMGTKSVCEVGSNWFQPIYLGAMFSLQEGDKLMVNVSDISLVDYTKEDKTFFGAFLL
Protocol: 1.8. […] DR3/Fc Chimera (R&D Systems) or DcR3/Fc Chimera (R&D Systems) was coated onto a 96-well plate (Maxisorp, Nunc) at a concentration of 2 μg/ml.

[2] = biological target: T2, human TL1A extracellular domain with N-terminal HIS and FLAG tag (human, UniProt O95150 72-251); assay: KinExA, 320-587 as CBP, free 320-587 captured on TL1A-coated Sepharose beads; repeat 2
T2 construct: whole entry named. ~70 kDa fraction purified by gel filtration
T2 sequence: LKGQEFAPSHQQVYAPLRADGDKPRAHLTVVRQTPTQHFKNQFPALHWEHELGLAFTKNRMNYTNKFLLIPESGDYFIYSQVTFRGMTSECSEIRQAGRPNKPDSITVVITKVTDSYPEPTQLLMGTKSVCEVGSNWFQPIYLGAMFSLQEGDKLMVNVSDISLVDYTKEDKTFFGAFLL

[3] = biological target: T2, human TL1A extracellular domain with …; assay: KinExA, 320-587 as CBP, free 320-587 captured on TL1A-coated Sepharose beads; repeat 1
[4] = biological target: T2, human TL1A extracellular domain with …; assay: KinExA, TL1A as CBP, free TL1A captured on 320-587-coated PMMA beads; average of two
[5] = biological target: T2, human TL1A extracellular domain with …; assay: KinExA, TL1A as CBP, free TL1A captured on 320-587-coated PMMA beads; repeat 2
[6] = biological target: T2, human TL1A extracellular domain with …; assay: KinExA, TL1A as CBP, free TL1A captured on 320-587-coated PMMA beads; repeat 1
dog TL1A = biological target: T3, dog TL1A (dog); assay: SPR: 320-587 captured on Protein A, TL1A of the species flowed over
T3 construct: recombinantly produced; whole entry named
T3 chain: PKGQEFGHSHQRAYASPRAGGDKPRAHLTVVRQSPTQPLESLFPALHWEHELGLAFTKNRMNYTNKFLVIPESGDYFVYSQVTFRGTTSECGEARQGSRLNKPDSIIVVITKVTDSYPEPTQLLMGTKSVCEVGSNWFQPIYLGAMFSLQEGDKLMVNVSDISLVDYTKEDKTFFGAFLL

rabbit TL1A = biological target: T4, rabbit TL1A (rabbit); assay: as above
T4 construct: recombinantly produced; whole entry named
T4 chain: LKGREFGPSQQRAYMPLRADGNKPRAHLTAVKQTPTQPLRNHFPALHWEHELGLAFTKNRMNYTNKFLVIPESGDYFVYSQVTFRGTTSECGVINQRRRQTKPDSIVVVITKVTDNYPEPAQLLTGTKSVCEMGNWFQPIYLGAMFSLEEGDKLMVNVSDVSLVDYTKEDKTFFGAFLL

mouse TL1A = biological target: T5, mouse TL1A (mouse, UniProt Q5UBV8 73-252); assay: as above
T5 construct: recombinantly produced; whole entry named
T5 sequence: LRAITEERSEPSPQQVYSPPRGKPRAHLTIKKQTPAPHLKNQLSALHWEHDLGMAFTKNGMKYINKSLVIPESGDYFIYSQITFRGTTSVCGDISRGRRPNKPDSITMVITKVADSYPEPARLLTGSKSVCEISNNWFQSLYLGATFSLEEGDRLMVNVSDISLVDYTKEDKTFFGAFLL

cynomolgus monkey TL1A = biological target: T6, cynomolgus monkey TL1A (cynomolgus monkey, UniProt O95150 72-251 (human entry), limits assumed); assay: as above
T6 construct: recombinantly produced; whole entry named
T6 chain: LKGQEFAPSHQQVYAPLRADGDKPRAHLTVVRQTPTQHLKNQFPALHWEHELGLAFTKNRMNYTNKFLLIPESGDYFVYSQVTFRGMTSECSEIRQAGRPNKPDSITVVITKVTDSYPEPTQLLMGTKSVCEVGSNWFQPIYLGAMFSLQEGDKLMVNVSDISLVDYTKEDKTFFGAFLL

guinea pig TL1A = biological target: T7, guinea pig TL1A (guinea pig); assay: as above
T7 construct: recombinantly produced; whole entry named
T7 chain: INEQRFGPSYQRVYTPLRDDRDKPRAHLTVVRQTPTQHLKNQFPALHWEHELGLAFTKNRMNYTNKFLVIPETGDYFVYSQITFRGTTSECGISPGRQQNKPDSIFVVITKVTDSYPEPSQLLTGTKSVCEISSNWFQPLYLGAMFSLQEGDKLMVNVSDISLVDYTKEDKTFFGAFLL

cat TL1A = biological target: T8, cat TL1A (cat); assay: as above
T8 construct: recombinantly produced; whole entry named
T8 chain: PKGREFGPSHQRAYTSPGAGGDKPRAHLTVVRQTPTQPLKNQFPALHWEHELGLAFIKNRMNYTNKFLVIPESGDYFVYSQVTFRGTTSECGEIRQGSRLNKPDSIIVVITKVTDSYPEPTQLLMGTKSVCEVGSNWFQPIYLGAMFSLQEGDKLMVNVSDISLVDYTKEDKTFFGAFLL

rat TL1A = biological target: T9, rat TL1A (rat, UniProt Q8K3Y7 73-252); assay: as above
T9 construct: recombinantly produced; whole entry named
T9 sequence: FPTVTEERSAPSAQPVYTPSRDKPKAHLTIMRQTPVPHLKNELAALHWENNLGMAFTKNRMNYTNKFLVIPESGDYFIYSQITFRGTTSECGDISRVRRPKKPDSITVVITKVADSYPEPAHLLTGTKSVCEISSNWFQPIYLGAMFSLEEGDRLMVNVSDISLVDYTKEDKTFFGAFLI

[7] = biological target: T2, human TL1A extracellular domain with …; assay: KinExA, 320-587 as CBP, free 320-587 captured on TL1A-coated Sepharose beads; average of two
[8] = biological target: T10, human TL1A extracellular domain with N-terminal HIS and FLAG tag (human) (UniProt O95150); assay: SPR Run 6, purified Ab captured on Protein A, TL1A 5 ug/mL, timepoint 44
T10 sequence: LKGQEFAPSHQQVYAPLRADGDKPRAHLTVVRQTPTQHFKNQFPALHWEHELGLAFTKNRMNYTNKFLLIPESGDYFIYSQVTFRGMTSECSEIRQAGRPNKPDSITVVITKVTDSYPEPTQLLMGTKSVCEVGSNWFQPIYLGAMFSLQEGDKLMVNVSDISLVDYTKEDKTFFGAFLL

[9] = biological target: T10, human TL1A extracellular domain with N-terminal HIS and FLAG tag (human); assay: SPR Run 6, purified Ab captured on Protein A, TL1A 5 ug/mL, timepoint 170
[10] = biological target: T11, human TL1A extracellular domain with N-terminal HIS and FLAG tag (human, UniProt O95150 72-251); assay: KinExA, Sepharose beads coated with TL1A, 320-587 as the CBP, assay 4
T11 construct: the whole entry is named; also called TNFSF15
T11 sequence: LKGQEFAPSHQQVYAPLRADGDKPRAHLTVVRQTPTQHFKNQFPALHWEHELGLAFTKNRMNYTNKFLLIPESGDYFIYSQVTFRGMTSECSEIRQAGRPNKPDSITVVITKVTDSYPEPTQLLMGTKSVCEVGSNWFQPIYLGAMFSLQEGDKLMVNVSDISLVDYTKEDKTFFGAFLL

[11] = biological target: T11, human TL1A extracellular domain with …; assay: KinExA, Sepharose beads coated with TL1A, 320-587 as the CBP, assay 2
[12] = biological target: T11, human TL1A extracellular domain with …; assay: KinExA, Sepharose beads coated with TL1A, 320-587 as the CBP, average of 5 assays (SD 8.33)
[13] = biological target: T11, human TL1A extracellular domain with …; assay: KinExA, Sepharose beads coated with TL1A, 320-587 as the CBP, assay 3
[14] = biological target: T11, human TL1A extracellular domain with …; assay: SPR Run 8, antibody on Protein A, TL1A 5 ug/mL, timepoint 590
From the text: (§1) 1.5. Antibody expression and antigen binding as determined by SPR. Using a CM5 sensor chip (GE Healthcare) Protein A (Pierce) was coupled to the chip surface using an amine coupling kit (GE Healthcare). Protein A was coupled on flow cell 1 and 2 (or alternatively 3 and 4) using a BIACORE® T200. […] The amount of supernatant or purified protein (as well as the concentration) injected during the capture stage varied between runs and is specified in the header of the Tables 3-11. At the end of injection of the supernatant or purified antibody the change in response units was measured. This value was reported as Capture Level in Tables 3-11. […] The response units were measured prior to the end of the dissociation phase. […] The sensorgrams were double referenced (flow cell 2 is subtracted from flow cell 1 and a buffer blank). As there were a large number of antibody variants to screen, these were screened across different runs (Tables 3-11). […] A summary of the conditions used in each run is below:
(§2) 2.1. […] In some experiment the antibodies were purified using Protein A chromatography (See 1.4) and purified antibodies were used in BIACORE® (GE Healthcare) experiments.

[15] = biological target: T11, human TL1A extracellular domain with …; assay: cell-based or functional assay
[16] = biological target: T11, human TL1A extracellular domain with …; assay: KinExA, PMMA beads coated with 320-587, TL1A as the CBP, assay 1
Protocol: (§3) Using the time to reach equilibrium determined above, all curves were allowed to come to equilibrium in a 25° C. incubator for 3 days.

[17] = biological target: T11, human TL1A extracellular domain with …; assay: KinExA, Sepharose beads coated with TL1A, 320-587 as the CBP, assay 1
[18] = biological target: T11, human TL1A extracellular domain with …; assay: SPR Run 8, antibody on Protein A, TL1A 5 ug/mL, timepoint 44
From the text: as §1, §2

[19] = biological target: T11, human TL1A extracellular domain with …; assay: KinExA, PMMA beads coated with 320-587, TL1A as the CBP, average of 3 assays (SD 13.5)
Protocol: as §3

[20] = biological target: T11, human TL1A extracellular domain with …; assay: KinExA, PMMA beads coated with 320-587, TL1A as the CBP, assay 2
Protocol: as §3

[21] = biological target: T11, human TL1A extracellular domain with …; assay: KinExA, PMMA beads coated with 320-587, TL1A as the CBP, assay 3
Protocol: as §3

[22] = biological target: T11, human TL1A extracellular domain with …; assay: KinExA, Sepharose beads coated with TL1A, 320-587 as the CBP, assay 5

B1: 320-587 (antibody, name in Kabat numbering, V domains shown)
VH: QVQLVQSGAEVKKPGASVKVSCKASGYTFTSYDINWVRQAPGQGLEWMGWLNPNSGYTGYAQKFQGRVTMTADRSTSTAYMELSSLRSEDTAVYYCAREVPETAAFEYWGQGTLVTVSS
VL: QSVLTQPPSVSGAPGQRVTISCTSSSSDIGAGLGVHWYQQLPGTAPKLLIEGYYNRPSGVPDRFSGSKSGTSASLTITGLLPEDEGDYYCQSWDGTLSALFGGGTKLTVLG
notes: human IgG1, lambda
[1]
  IC50 (read off the curve): ~1 µg/mL
[2]
  kon: 745000 M⁻¹ s⁻¹
[3]
  kon: 835000 M⁻¹ s⁻¹
[4]
  kon: 593000 M⁻¹ s⁻¹
[5]
  kon: 574000 M⁻¹ s⁻¹
[6]
  kon: 611000 M⁻¹ s⁻¹
Dog TL1A
  binding result: binds
Rabbit TL1A
  binding result: binds
Mouse TL1A
  binding result: binds
Cynomolgus monkey TL1A
  binding result: binds
Guinea pig TL1A
  binding result: binds
Cat TL1A
  binding result: binds
Rat TL1A
  binding result: binds
[7]
  kon: 790000 M⁻¹ s⁻¹

B2: 320-457 (antibody, human IgG1, name in Kabat numbering, V domains shown)
VH: QVQLVQSGAEVKKPGASVKVSCKASGYTFTSYDDNWVRQAPGQGLEWMGWLNPNSGNTGYAQKFQGRVTMTADRSTSTAYMELSSLRSEDTAVYYCAREVPETAAFEYWGQGTLVTVSS
VL: QSVLTQPPSVSGAPGQRVTISCTSSSSDIGAGLGVHWYQQLPGTAPKLLIEGYYNRPSGVPDRFSGSKSGTSASLTITGLLPEDEGDYYCQSYDGTLSALFGGGTKLTVLG
[8]
  TL1A Binding Level (Early): 6 RU
[9]
  TL1A Binding Level (Late): 4 RU

B3: 320-587 (antibody, name in Kabat numbering, V domains shown)
VH: QVQLVQSGAEVKKPGASVKVSCKASGYTFTSYDINWVRQAPGQGLEWMGWLNPNSGYTGYAQKFQGRVTMTADRSTSTAYMELSSLRSEDTAVYYCAREVPETAAFEYWGQGTLVTVSS
VL: QSVLTQPPSVSGAPGQRVTISCTSSSSDIGAGLGVHWYQQLPGTAPKLLIEGYYNRPSGVPDRFSGSKSGTSASLTITGLLPEDEGDYYCQSWDGTLSALFGGGTKLTVLG
notes: full-length human IgG1, lambda
[10]
  Kd: 0.0324 nM
[11]
  Kd: 0.052 nM
[12]
  Kd: 0.041 nM
[13]
  Kd: 0.0463 nM
[14]
  TL1A Binding Level (Late): 122 RU
[15]
  Antibody IC50, TL1A induced caspase potency assay in TF-1 cells: 0.001 µg/mL
  Fold improvement over 320-179, TL1A induced caspase potency assay in TF-1 cells: 40 fold
[16]
  Kd: 0.0334 nM
[17]
  Kd: 0.0404 nM
[18]
  TL1A Binding Level (Early): 123 RU
[19]
  Kd: 0.0415 nM
[20]
  Kd: 0.0571 nM
[21]
  Kd: 0.0341 nM
[22]
  Kd: 0.0337 nM
